This data set can be described thus: label from the status in PepcDB records.
As for “MNSVRKIKCLFLIFLDILFINLGYFISLCFEYGKEMKIEYFFNIRNLIILAIFTNILIFCFFNLYKNIWHMAGISECIRCLIASSISSILLILYKFIFNMDVTIVFLINSSILICMFSLLTRMSIRIFRKIYFPYKLESNLRKNVLIVGAGHCGRIVIDEMNKNNKFNPIGIVDDDLNKKGTFLNGVKVLGNRDDIEKICKRIKVDIILIAISNLSSNDKDEIIKRCENTKIKVKIIPSIYDLIDGNVKLTNIRDIDLRDLLGRDETRLDKEEVNNYIKEKIVIVTGGGGSIGSELCRQIAVFNPKKLIILDIYENYAYELENELKRNFKNLDLEVIIASIRDKSRLKKIFDKYKPDLIFHAAAHKHVPLMENNPEEAIKNNVLGTLNVAECADEFNLEKFVFISTDKAVNPTNIMGATKRIGEMIIQAMNEVSKTDFVAVRFGNVLGSNGSVIPLFIEQIKNGGPVTLTHKDITRYFMLIPEAAQLVLQAGAYAKGGEIFVLDMGKPVKIYDLTEKLIRLSGFEPNKDIQIKIVGLRPGEKLYEELILSEEELKKTKNEKIFILSPFKFDIKEIKKKIVELLNVALNEDKKAIKEKLKEIVKNYRDLEQIDFI”, the protein production entry is “failed”. To “MTNAFSEELALEAAGLDAIFGKDFKAEETTTGHVRWSVPLSHNGVELELAFLLDSAYPLDSEPQVRVTCKEGLSLRAVRELEGHLQKVAAENRGSPSAYLLYTAAQDWIDTHDRREAAEAISATIASTRLSAREPDSAGTGTTFETKAESFTQLVEHETLEHATIDRTLGTPVTPETFAAWKQEFDKYLLENGILDIANNADIELDASQGGWKGNSRRKPTGRELFTMHREMFVDDFEESDQCESTASGACDTQGSELAEHVDASLFLS” belongs “failed”; to “MIPVTSFRGKKVALFGLGGSGLVTARALVAGGAAVVAFDDNPDSVAKAQAEGIATADLHTIDWSSFSSFVLAPGVPLTHPKPHWSVDLAKAAGVEVIGDIELFIRERRVHAPDCPFIAITGTNGKSTTTALIAHILQSSGRDTQLGGNIGTAVLSLDPPKAQRFYVVECSSYQIDLAPTINPTAGILLNLTPDHLDRHGTMQHYADVKERLVAGSGTAIVGVDDSHSTLIADRIERAGVKVERISKRNVVSEGLYAEGSQILRAHGGTSSLLVDLDGIQTLRGSHNAQNAAAAIAACLAVGVSEEEIRAGLKSFPGLKHRMQPVGRRGNVTFVNDSKATNADAAAPALSSFDRIYWIAGGLPKAGGITSLSPLFPRIAKAYLIGEAAAEFAATLGEAVPYEISGTLDKAVQHAAADAEKDATAGNVVMLSPACASFDQYKNFEIRGDSFVAQVAALEGMTMLVHSGKGG”, “failed”.

In the case of “MSQAHAAQRPNGAKEPANPTQGGRKAIIAAASANLAIAVTKAIAWALTGASSMLAEAIHSVADTANQVVLMMGGKESHKEADEDHPFGYETARYLSGFIVAIVIFTLGGLFALYEAYHKIGATLGGHPDELLDSQWWWVPLAVVMISLCAEGASLRTALKESSQDREGMTILQYIRKAKAPELPVVMLEDSAAVLGLIFAFLGVGLTLLTHNPIFDGIGSACIGILLVVVAGVLSREMKSLLEGESAAPESRKAVYDALIHSDGVDSVIYMKTVHLGPETILLAAKIAVDPTDSAFEVARIIDNAEASVRAAEPLVGPLFLEPDIRYGDKRIKDGEERPEDQS”, the protein production result is “failed”. For “MRMQRQGCVQAQIAGQSGMLTYWDNRRDMPMIASHRWTALFVLVILMPLPAFAGTPEGGYRQPPEPLLSVMRAPLNPSPRPDPTGRTLLLVQRTQYPPIARVAEPYLKLAGVRVEPRTHSRHDMSNGYGIRSCLEGFSLVDIASGKQTAVSLPAGACPALPVWSPDGRRFAFNNTAADHVELWVGDVATGQVRKIDGVQLNPVLGGEIQWLGGSSTLLLKTVPQDLGPAPRKAAVPPGPEVKETIQGKGESSTYEARDTLSSPQDEALFTYYATAQLLTVDAATGSQRKLGTPAVYSNVDGAPDGRHVLVERLKPPYSYVTTYARFAHDVAVLDLETGNERVLANLPVADRVPVQGVPTGPRAYAWRANQPATLVWAEALDGGDWKTSVPARDTLMTLAAPFTAKPRALARVQQRYAGLSWFAEGGQALLDEYDENRHWRRTTLVDADRPGAGERVLFDLSTDDLYADPGLPEMRVLANGQAVLREAQGALFLSGQGASPAGDRPFLDRYTLATGKSQRLFRSDAHVDEVFFGFAGDETSRLLTWHQSLTDPPNVYVRTLGEPLPAPAAGEAAFASTATPVTHFADPTPLVRQIKKRLVSYKRKDGVDLSFTLYTPPGYKEGTRVPAILYAYPLDYADPSKAGQVSGASERDFTRLNYYQLLLLAGYAIIDDAAFPIVGDPKTAYDTYLQQLVDDATAAVDKAVELGVVDRQRIGVTGHSHGALMTANLLAHTDLFRAGAATSGSYNKTLTPFGFQSERRSFWKAPDVYAQASAFFHADKINEPLLIVHGMDDANPGTETTQAPRLFQAIRGNGGTARLVLLPFEPHWYSARESNEDLVAEMLEWFDRYVKNAPPRDAQHANDVR”, the protein production entry is recorded as “failed”. To “MASPDGSGSESFRTRRRRNRARFALAAVLTFILVAVGVLALVFYELRPVSLKIAVGPGGGDDLKLVQALAQSFARDRAAVRLVPLVTGGATPSIEAFRDHKADLAVTRADLDLPADAQAVAVLRKNVVVLWAPSSAGKGKKSIKTITDLAGRRVGVIGRTPANVKLFDIILAESGVAPDKVQKEQFATGQLAEMARDPSLDAFLAVGPLDSKITGEAIAATAKARGEPRFLPVDVGDAIAKKYPIYDSEEIPGSIFSTQPARPEDKVDTVSVNHLIVARQSLSSVTVTKLTRQIFAARQQIAREMPLAGKIEAPDTEKDAALPAHRGAAAFIDGTDRTFMERNSDYIWGLVLLLSGLGSAGAWFRSYLTRDEREAGAKMRDRALAMVAKARKAETLEALDALQHEIDKILRDTLDCYDDGAIEDLEPFSLVLEQFHHAVMDRRAALSASGPGLIPVDPATLPAAHA” belongs “failed”. To “MGNVLFLVSLSLIWVMLLYHMFLMQGGFRHYMTFERNIPKWKENVKDLPKVSVLIPAHNEEVVIRQTLKAMVNLYYPKDRLEIIVVNDNSSDRTGDIVDEFSTQYGFIKMVVTKPPHAGKGKSSALNCGFAESNGDVICVYDADNTPEKMAVYYLVLGLMNDQKAGAVVGKFRVINAAKTLLTKFINIETICFQWMAQGGRWKWFKIATIPGTNFAIRRSIIEQLGGWDDKALAEDTELTIRVYNLGYHIRFFPAAVTWEQEPETWKVWWRQRTRWARGNQYVVLKFLAQFFKLKRKRIIFDLFYFFFTYFLFFFGVIMSNAIFVINLFYNLHLSFGFLSIILWVLAFFLFMTKVMITLSIEKTEMNRQNFFIVFLMYFTYSQAWIVLVIYSLFVEIKHRLFKQHGTKQNDTIKRKAGDFFEIYHHMSGKLLADHGDGTSGCSQRRYSRRLDPGGKQPGTSQAASAHKRSLDFIRGKRQRRADVSNTGGRLLYPSAAYT” belongs “failed”. In the case of “GLINTHAHVGMSASKGLFDDVDLDSFLKKTFEYDSDRTSTGIFNSAKLGMYEMIGNGITAFVDLYYSEDIIAKAAEEIGIRAFLSWVTLDKELTTQIGDPVENAENFIRNHVGNKYVVPSVGVQGIYVANDDTFRRAMDLAEKYGTILHMHLSETRKEVYDAVKKLGERPIEHLHNIGILNKRVLAAHCVWATYHEVRLLSKDGVNVSWNSISNFKLGTGGIPPIPEMMRENVNVTIGTDSNGSNNSLDMFQAMKFSAISVKNYRWDASLMKAQEILDMATRNAARALQLNAG” it was “failed”; in that of “MQVIKQKLTATCAQLTGYLHQPDTNAHQTNLPAIIIVPGGSYTHIPVAQAESLAMAFAGHGYQAFYLEYTLLTDQQPLGLAPVLDLGRAVNLLRQHAAEWHIDPQQITPAGFSVGGHIVALYNDYWATRVATELNVTPAMLKPNNVVLGYPVISPLLGFPKDDATLATWTPTPNELAADQHVNSDNQPTFIWTTADDPIVPATNTLAYATALATAKIPYELHVFKHGPHGLALANAQTAWKPDANQPHVAHWLTLALEWLADNR”, “not failed”; in that of “MLRGDILDSKRTSIMTRFSSLLLALSVLLLPLRPAQGQPAERTSSLTVEQIMQAPETWIGDWPTNARWHESGQALYFNWNPGGDFPSDSLYKVSRSGGAPQKVSPAERRSNPPTFDGWHHGEHVYTDDFSRKVYAADGDLYLYNRETDTQTRLTDTPAREGNPRFGLEEDRVLFERDDNLFSVHLSTGQIRQLTNVQSGREPQEGAPSPRERFLEEQQLELFETLRERNEEEEQADEARERDREADDPPPPFYTGDAEVSALRMDPTERFVTIAQQSQPDAADPTQVIDYVTESGQADVRRARPKVGIPPGDFALHVQDLKRDTTIAVNLHQLPGAYDVPAYRQEQGAELDSSEAKRALYSYGPYWSADGDHGVLVVRADNNKDRWIARLDPETGDLTVLDRQHDTAWIGGPGISAYGGPGNVGWMPDGEHFYFQSEATGYSHLYTVDVETGETTQLTSGDFEVLDARLSQDGSTWTLTTNRHSPHQQHVERMPADGGDITRLTQMTGTHDAVLSPDGTRLATLYSTTNQPADLYLKDATADADPVRITESPTDEWAAYDWRMPELTRFEASDGVEVPAHVFRPDNPNGAAVFFVHGAGYLQNVLKDFPPYFREYMFHNMLTDLGYTVVDVDYRGSAGYGRDWRTAVYRHMGGRDLQDYVDAAKWVGDTYGIPAERRFIYGGSYGGFMTLMALFTEPEHFGGGAALRSVTDWAHYNDVYTSNILNTPQTDSLAYARSSPIYHAEGLEDPLLMPHGLVDTNVQPQDIFRLTQRLIELGKENWELAIYPVEGHGFEEPSSWTDEYRRIFELIQESVGPERPQN”, “failed”. Take “MQFFGGSEISPSPPVPTASGNNAHMMYVFNRNGVCLLYKEWNRPLHTLNPQQDHKLMFGLLFSLKSLTAKMDPVNADKGNLGVPQLPGQGCSFHSFRTNTYKLSFMETPSGIKIILVTHPKTGDLRESLKYIYSLYVEYVVKNPIYSPGSPIKSELFNTALDQYVRSIS”: the protein production result was “failed”. To “MKSYRKELWFHTKRRREFINITPLLEECVRESGIKEGLLLCNAMHITASVFINDDEPGLHHDFEVWLEKLAPEKPYSQYKHNDTGEDNADAHLKRTIMGREVVIAITDRKMDLGPWEQVFYGEFDGMRPKRVLVKIIGE” belongs “not failed”; to “AGSATITYSVLEETDRGSLVGNLAKDLGLSLRELITRGAQILSKGNKQLLQLEQKSGNLLLKEKLDREELCGSTNPCILHFQVLLKSPVQFIQGEIQLQDVNDHAPEFMEDE”, “not failed”. In the case of “MLKDQANQLEFPRDFLGISLADQPNKYYFIIRTQRIVLEADSSIQLIMEKLQSYKSKVALYFDGFQYQLGDFRLRVGKVVPTHSENVRGIVMEVEYLPISSMEKAQKVMEEFLEIWNEALAKRSLPGKFVNIDLNFGEFGLGDIYTPQHTAVRYALVMAHMIATVQAVRG” it was “failed”. For “MAQEDVTAVATNGAGPVETHLVFTEFKQMLLVEAQKVGDAVTFYKSAFGAIESGHSLYPKRKLDQELPHVLSSELNLAGSSFVVCDVSSLPGFSTAKSEGSGVTFLLGTKDAEAAVAKAVDAGAVKVEVTEAEVELGFKGKVTDPFGVTWIFAEKKTVITDENKEV”, the protein production entry is given as “not failed”. In the case of “MPFPPEVYVLLVAALPVVELRGAIPLGVALGLSPWESFLWALLGNLLVVPLALGLLPWAVGLATRMPLFARAWRALEVRVRLKGEAQVQRLGALGLFLFVAVPLPGTGAWSGAVLAVVLGVRRRYAFPALALGVVAAGLLVLLLTGGTVYGLNYLR” it was “failed”; in that of “NPHMWWLQDADPENNSRQASPSQESINQLVYMGFDTVVAEAALRVFGGNVQLAAQTLAHHGGSLPPDLQF”, “not failed”; in that of “MVKMKKVEQLSSHLYLIDDFDLQHNERTGTYVLLGDDITLIETCAAPSLPYILDGLQQLHIDLNEVKNIIVTHVHLDHAGAAGLMMEKCPNATLYVHSRGARHMIDPTKLILGAKAVYKEDFDKLFDPILPIEEERVHIVQHGDTLQIAEDRILTFYDTPGHAKHHISIHDSLTNGIFTGDTIGIYYRELADLGVELYLPSTSPSQFQPDAMIASKNHIQSMNVDTIYFGHYGASSNVTEVYKQLEHWLPIFVHTGKEVFEKYNDFDEATKALQTILMDKISSHLIKLNVPSDHSVYNILHLDIEISAMGIIDYFTKLEKTNPPIS”, “failed”.

Values taken from a protein production outcome set (Wang et al. 2014).
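Further: failed if final PepcDB status was selected cloned or expressed and not failed if soluble or beyond.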
